The MegaScale stability set (Tsuboyama et al. 2023)

B1: EEHEE_rd4_0363 (parent)
chain: VTVDIKGMEYHFDNPEEAKKFAERMAKELGGELKVENGTLKVE

Variants of: B1
Test: folding stability dG (cDNA display proteolysis); higher = more stable
Conditions: PBS, room temperature

**Q.** For VTVDIKGMEYHFDNPEEAKKFAERMAKELGGELKVENGTLGVE [K41G], which “folding stability dG” value is on record?
**A.** The value was 1.01 kcal/mol.

**Q.** Which “folding stability dG” value does the source give for VTVDIKGMEYHFDNPEEAKKFAEHMAKELGGELKVENGTLKVE [R24H] here?
**A.** The value was 1.94 kcal/mol.

**Q.** For VTVDIKGMEYHFDNPEEAKKFAENMAKELGGELKVENGTLKVE [R24N], which “folding stability dG” value is on record?
**A.** The value was 1.55 kcal/mol.

**Q.** For VTVDIKGMEYHEDNPEEAKKFAERMAKELGGELKVENGTLKVE [F12E], which “folding stability dG” value is on record?
**A.** The value was -0.877 kcal/mol.

**Q.** Which “folding stability dG” value does the source give for VTVDIKGMEYHRDNPEEAKKFAERMAKELGGELKVENGTLKVE [F12R] here?
**A.** The value was -0.751 kcal/mol.

**Q.** For VTVDIKGMEYHSDNPEEAKKFAERMAKELGGELKVENGTLKVE [F12S], which “folding stability dG” value is on record?
**A.** Its value is -0.396 kcal/mol.

**Q.** Which “folding stability dG” value does the source give for VTVDIKGMEYHMDNPEEAKKFAERMAKELGGELKVENGTLKVE [F12M] here?
**A.** The value was 0.11 kcal/mol.

**Q.** For VTVDIKGMEYHYDNPEEAKKFAERMAKELGGELKVENGTLKVE [F12Y], which “folding stability dG” value is on record?
**A.** Its value is 0.382 kcal/mol.

**Q.** Which “folding stability dG” value does the source give for VTVDIKGMEYHFDNPEEAKKFHERMAKELGGELKVENGTLKVE [A22H] here?
**A.** Its value is 0.228 kcal/mol.

**Q.** For VTVDIKGMEYHFDNPEEAKKFKERMAKELGGELKVENGTLKVE [A22K], which “folding stability dG” value is on record?
**A.** The value was 0.798 kcal/mol.

**Q.** With VTVDIKGMEYHFDNPEEAKKFYERMAKELGGELKVENGTLKVE [A22Y] as the variant, how does the “folding stability dG” value read?
**A.** The value was 1.06 kcal/mol.

**Q.** With VTVDIKGMEYHFDNPEEAKKFMERMAKELGGELKVENGTLKVE [A22M] as the variant, how does the “folding stability dG” value read?
**A.** Its value is 1.39 kcal/mol.

**Q.** For VTVDIKGMEYHFDNPEEAKKFGERMAKELGGELKVENGTLKVE [A22G], which “folding stability dG” value is on record?
**A.** Its value is 0.968 kcal/mol.

**Q.** For VTVDIKGMEYHFDNNEEAKKFAERMAKELGGELKVENGTLKVE [P15N], which “folding stability dG” value is on record?
**A.** The value was 1.41 kcal/mol.

**Q.** With VTVDIKGMEYHFDNPEEAKKFAERMAKELGYELKVENGTLKVE [G31Y] as the variant, how does the “folding stability dG” value read?
**A.** The value was 2.12 kcal/mol.

**Q.** For VTVDIKGMEYHFDNPEEAKKFAERMAKELGFELKVENGTLKVE [G31F], which “folding stability dG” value is on record?
**A.** The value was 2.03 kcal/mol.

**Q.** With VTVDIKGMEYHFDNPEEAKKFAERMAKELGIELKVENGTLKVE [G31I] as the variant, how does the “folding stability dG” value read?
**A.** The value was 1.88 kcal/mol.

**Q.** For VTVDIKGMEYHFDNPEEAKKFAERMAKELGKELKVENGTLKVE [G31K], which “folding stability dG” value is on record?
**A.** Its value is 0.977 kcal/mol.

**Q.** Which “folding stability dG” value does the source give for VTVDIKGMEYHFDFPEEAKKFAERMAKELGGELKVENGTLKVE [N14F] here?
**A.** The value was 0.914 kcal/mol.

**Q.** For VTVDIKGMEYHFDVPEEAKKFAERMAKELGGELKVENGTLKVE [N14V], which “folding stability dG” value is on record?
**A.** The value was 0.902 kcal/mol.

**Q.** Which “folding stability dG” value does the source give for VTVNIKGMEYHFDNPEEAKKFAERMAKELGGELKVENGTLKVE [D4N] here?
**A.** The value was 2.67 kcal/mol.

**Q.** With VTVDIKGMEYHFDNPEEAKKFAERMAKELGGELKCENGTLKVE [V35C] as the variant, how does the “folding stability dG” value read?
**A.** The value was 2.78 kcal/mol.

**Q.** Which “folding stability dG” value does the source give for VTVDIKGMEYHFDNPEEAKKFAERMAKELGGELKKENGTLKVE [V35K] here?
**A.** The value was 1.3 kcal/mol.

**Q.** Which “folding stability dG” value does the source give for VTVDIKGMEYHFDNPEEAKKFAERMAKELGGELKIENGTLKVE [V35I] here?
**A.** The value was 2.27 kcal/mol.

**Q.** With VTVDIKGMEYHFFNPEEAKKFAERMAKELGGELKVENGTLKVE [D13F] as the variant, how does the “folding stability dG” value read?
**A.** Its value is 1.41 kcal/mol.

**Q.** With VTVDIKGMEYHFRNPEEAKKFAERMAKELGGELKVENGTLKVE [D13R] as the variant, how does the “folding stability dG” value read?
**A.** The value was 1.74 kcal/mol.

**Q.** Which “folding stability dG” value does the source give for VTVDIKGMEYHFGNPEEAKKFAERMAKELGGELKVENGTLKVE [D13G] here?
**A.** The value was 1.51 kcal/mol.

**Q.** Which “folding stability dG” value does the source give for VTVDIKGMEYHFDNPEEATKFAERMAKELGGELKVENGTLKVE [K19T] here?
**A.** The value was 1.71 kcal/mol.

**Q.** For VTVDYKGMEYHFDNPEEAKKFAERMAKELGGELKVENGTLKVE [I5Y], which “folding stability dG” value is on record?
**A.** The value was 1.52 kcal/mol.

**Q.** For VTVDVKGMEYHFDNPEEAKKFAERMAKELGGELKVENGTLKVE [I5V], which “folding stability dG” value is on record?
**A.** The value was 1.88 kcal/mol.

**Q.** With VTVDKKGMEYHFDNPEEAKKFAERMAKELGGELKVENGTLKVE [I5K] as the variant, how does the “folding stability dG” value read?
**A.** Its value is 0.088 kcal/mol.

**Q.** For VTVDMKGMEYHFDNPEEAKKFAERMAKELGGELKVENGTLKVE [I5M], which “folding stability dG” value is on record?
**A.** The value was 0.754 kcal/mol.

**Q.** With VTVDEKGMEYHFDNPEEAKKFAERMAKELGGELKVENGTLKVE [I5E] as the variant, how does the “folding stability dG” value read?
**A.** The value was 0.155 kcal/mol.

**Q.** With VTVDIKGMEYHFDNPEEAKKFAERMADELGGELKVENGTLKVE [K27D] as the variant, how does the “folding stability dG” value read?
**A.** The value was 1.56 kcal/mol.

**Q.** With VTVDIKGMEYHFDNPEEAKKFAERMAEELGGELKVENGTLKVE [K27E] as the variant, how does the “folding stability dG” value read?
**A.** Its value is 1.77 kcal/mol.

**Q.** For VTVDIKGMEYHFDNPEEAKKFAERMANELGGELKVENGTLKVE [K27N], which “folding stability dG” value is on record?
**A.** The value was 1.75 kcal/mol.

**Q.** With VTVDIKGMEYHFDNPEEAKKFAERMARELGGELKVENGTLKVE [K27R] as the variant, how does the “folding stability dG” value read?
**A.** The value was 2.11 kcal/mol.

**Q.** For VTVDIKHMEYHFDNPEEAKKFAERMAKELGGELKVENGTLKVE [G7H], which “folding stability dG” value is on record?
**A.** Its value is 0.716 kcal/mol.

**Q.** For VTVDIKPMEYHFDNPEEAKKFAERMAKELGGELKVENGTLKVE [G7P], which “folding stability dG” value is on record?
**A.** The value was 0.309 kcal/mol.

**Q.** Which “folding stability dG” value does the source give for VTVDIKGMEYHFDNPEEAKKFAERMAKELGGELKVENGTLKVV [E43V] here?
**A.** The value was 3.14 kcal/mol.

**Q.** With VTVDIKGMEYHFDNPEEAKKFAERMAKELGGELKVENGTLKVT [E43T] as the variant, how does the “folding stability dG” value read?
**A.** The value was 2.38 kcal/mol.

**Q.** With VTVDIKGMEYHFDNPEEAKKFAERMAKELGGELKVENGTLKVW [E43W] as the variant, how does the “folding stability dG” value read?
**A.** Its value is 2.64 kcal/mol.

**Q.** With VTVDIKGMEYHFDNPEEAKKFAERMGKELGGELKVENGTLKVE [A26G] as the variant, how does the “folding stability dG” value read?
**A.** The value was 0.834 kcal/mol.

**Q.** Which “folding stability dG” value does the source give for VTVDIKGMEYHFDNPEEAKKFAERMFKELGGELKVENGTLKVE [A26F] here?
**A.** The value was 1.13 kcal/mol.

**Q.** Which “folding stability dG” value does the source give for VTVDIKGMEYHFDNPEEAKKFAERMVKELGGELKVENGTLKVE [A26V] here?
**A.** The value was 1.66 kcal/mol.

**Q.** For VTVDIKGMEYHFDNPEEAKKFAERMAKELGGELKVEIGTLKVE [N37I], which “folding stability dG” value is on record?
**A.** The value was 1.14 kcal/mol.

**Q.** With VTVDIKGMEYHFDNPEEAKKFAERMAKELGGELKVEGGTLKVE [N37G] as the variant, how does the “folding stability dG” value read?
**A.** The value was 1.97 kcal/mol.

**Q.** Which “folding stability dG” value does the source give for VTVDIKGMEYHFDNPEEAKKFAERMAKELGGELKVEAGTLKVE [N37A] here?
**A.** Its value is 1.4 kcal/mol.

**Q.** For VTVDIKGMEYHFDNPEEAKKFAERMAKELGGMLKVENGTLKVE [E32M], which “folding stability dG” value is on record?
**A.** Its value is 2.31 kcal/mol.

**Q.** With VTVDIKGMEYHFDNPEEAKKFAERMAKELGGFLKVENGTLKVE [E32F] as the variant, how does the “folding stability dG” value read?
**A.** The value was 2.82 kcal/mol.

**Q.** For VTVDIKGMEYHFDNPEEAKKFAERMAKELGGHLKVENGTLKVE [E32H], which “folding stability dG” value is on record?
**A.** The value was 2.45 kcal/mol.

**Q.** With VWVDIKGMEYHFDNPEEAKKFAERMAKELGGELKVENGTLKVE [T2W] as the variant, how does the “folding stability dG” value read?
**A.** Its value is 2.04 kcal/mol.

**Q.** For VAVDIKGMEYHFDNPEEAKKFAERMAKELGGELKVENGTLKVE [T2A], which “folding stability dG” value is on record?
**A.** The value was 1.1 kcal/mol.

**Q.** With VNVDIKGMEYHFDNPEEAKKFAERMAKELGGELKVENGTLKVE [T2N] as the variant, how does the “folding stability dG” value read?
**A.** The value was 1.1 kcal/mol.

**Q.** With VTVDIKGMPYHFDNPEEAKKFAERMAKELGGELKVENGTLKVE [E9P] as the variant, how does the “folding stability dG” value read?
**A.** Its value is 1.47 kcal/mol.

**Q.** Which “folding stability dG” value does the source give for VTVDIKGMYYHFDNPEEAKKFAERMAKELGGELKVENGTLKVE [E9Y] here?
**A.** The value was 2.6 kcal/mol.

**Q.** Which “folding stability dG” value does the source give for VTVDIKGMHYHFDNPEEAKKFAERMAKELGGELKVENGTLKVE [E9H] here?
**A.** Its value is 2.51 kcal/mol.

**Q.** Which “folding stability dG” value does the source give for VTVDIKGMSYHFDNPEEAKKFAERMAKELGGELKVENGTLKVE [E9S] here?
**A.** The value was 2.32 kcal/mol.

**Q.** For VTVDIKGMVYHFDNPEEAKKFAERMAKELGGELKVENGTLKVE [E9V], which “folding stability dG” value is on record?
**A.** Its value is 2.93 kcal/mol.
